{"source": "paper PMC12386978", "biological_target": "K151Q/R mutants", "experiment": "split reporter (BiFC, NanoBiT); split-luciferase complementation; HEK293T cells co-transfected with NLuc-mCRY1 (wild-type or mutant) and a CLuc fusion of the partner; bioluminescence read 24 h after transfection in DMEM with 100 uM D-luciferin", "data": [{"substance": "CLuc-BMAL1 (from UniProt Q9WTL8 1-632) (natural protein)", "values": [{"measurement": "binding rate, percent of the wild type (% of the wild type)", "value": "50 to 60"}]}]}
